Laboratory results from the supplement of paper PMC10126150.
± gives the standard deviation of the averaged measurements.

System: ATP
Assay: switch fluorescence ratio, 500 uM ATP over buffer (Cy3 cluster intensity, sum of 5 cycles each) (fold (ratio)); higher = stronger signal-on switching upon ATP binding; sequences stand for … in TCGTCGGCAGCGTCAGATGTGTATAAGAGACAGTTTTTTTTTTTTTTTTTTTTTTTTT…TC
Conditions: aptamer strand: ATP DNA aptamer (quencher-CACCTGGGGGAGTATTGCGGAGGAAGG + anchor), 100 nM annealed; ATP concentration: 500 uM
Procedure, shortened: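 The fluorescence ratio divides summed target-cycle Cy3 intensity by summed buffer-cycle Cy3 intensity for each cluster and is averaged per switch-domain sequence. Cy3-labelled switching-strand clusters on a modified Illumina MiSeq flow-cell were annealed to 100 nM quencher-labelled ATP aptamer, then imaged in selection buffer and again after 15 min with 500 uM ATP at 22 °C. Five such cycles were run, with NaOH stripping and re-annealing between them, and clusters outside 100-1000 RFU were excluded.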
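Further: ATP exposure 15 min at 22 °C before imaging.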

Sequence	switch fluorescence ratio
GTTGTTACTG	1.02 ± 0.019
GTTGTTAGGG	1 ± 0.0046
GTTGTTCAAA	0.989 ± 0.015
GTTGTTGCTT	0.982 ± 0.029
GTTGTTGGGA	0.9898 ± 0.003
GTTGTTGGTG	1.01 ± 0.015
GTTGTTTAGT	0.994 ± 0.026
GTTGTTTCAG	0.969 ± 0.022
GTTGTTTTAA	1.05 ± 0.011
GTTTAAAATC	0.99757 ± 0.00014
GTTTAAATCC	0.989 ± 0.05
GTTTAAATTC	1 ± 0.08
GTTTAACGGT	1 ± 0.012
GTTTAAGGGC	0.988 ± 0.032
GTTTACGGGC	1.03 ± 0.027
GTTTATATGT	1.01 ± 0.049
GTTTCCAATC	1.02 ± 0.06
GTTTCCTGGG	1.03 ± 0.082
GTTTCGAGGT	0.96 ± 0.012
GTTTCGGGGA	1 ± 0.038
GTTTCTAGCT	0.969 ± 0.028
GTTTCTGGAG	1.03 ± 0.013
GTTTCTGGAT	0.98 ± 0.032
GTTTCTTTGG	1.06 ± 0.13
GTTTGAACGG	0.993 ± 0.018

Sequence	switch fluorescence ratio
GTTTGAGATA	0.971 ± 0.035
GTTTGAGCAC	1.02 ± 0.023
GTTTGAGGCT	1 ± 0.046
GTTTGAGTTT	0.996 ± 0.026
GTTTGATCTG	0.959 ± 0.026
GTTTGATGCG	0.995 ± 0.022
GTTTGCCAGG	1.01 ± 0.013
GTTTGCTGGG	0.983 ± 0.035
GTTTGGAGGA	0.96 ± 0.024
GTTTGGATAT	0.963 ± 0.01
GTTTGGATGC	0.963 ± 0.03
GTTTGGCATA	1.14 ± 0.19
GTTTGGCCGT	0.97 ± 0.035
GTTTGGGATA	0.992 ± 0.034
GTTTGGGGGG	1.04 ± 0.13
GTTTGTACCG	1 ± 0.051
GTTTGTACGT	0.975 ± 0.038
GTTTGTAGTT	0.968 ± 0.037
GTTTGTCACC	1.03 ± 0.034
GTTTGTGCT	0.988 ± 0.019
GTTTGTGTCA	0.993 ± 0.052
GTTTGTTACT	0.964 ± 0.052
GTTTGTTATC	0.98 ± 0.0057
GTTTTAAGGT	1.017 ± 0.0067
GTTTTAATTC	0.9628 ± 0.0036

Sequence	switch fluorescence ratio
GTTTTAGGAG	0.995 ± 0.043
GTTTTAGTAG	1.02 ± 0.015
GTTTTATAAA	0.9762 ± 0.0028
GTTTTATGAT	0.967 ± 0.016
GTTTTATTGT	0.955 ± 0.038
GTTTTATTTG	1.01 ± 0.025
GTTTTCAATT	0.983 ± 0.01
GTTTTCAGGG	1.02 ± 0.037
GTTTTCAGGT	0.992 ± 0.037
GTTTTCCGTC	1 ± 0.013
GTTTTCGGAT	0.983 ± 0.013
GTTTTCGGTT	1.013 ± 0.0056
GTTTTCTGGA	0.9988 ± 0.0057
GTTTTCTTGG	0.977 ± 0.013
GTTTTGGGAT	1.02 ± 0.031
GTTTTTAACT	1.012 ± 0.0075
GTTTTTAGAT	0.9709 ± 0.0092
GTTTTTATGA	0.973 ± 0.017
GTTTTTCCAG	0.9844 ± 0.0061
GTTTTTGTTA	0.991 ± 0.036
GTTTTTTAAG	0.9877 ± 0.0089
GTTTTTTGGG	1 ± 0.042
GTTTTTTTTT	1.02 ± 0.07
TAAAAAAAGG	1.05 ± 0.067
TAAAAAACCG	1.03 ± 0.025

Sequence	switch fluorescence ratio
TAAAAAAGAT	0.978 ± 0.017
TAAAAAAGGA	1.05 ± 0.12
TAAAAACGAC	1.04 ± 0.051
TAAAAACGGA	0.989 ± 0.042
TAAAAACGGG	1.05 ± 0.11
TAAAAACGTT	1.07 ± 0.086
TAAAAAGACG	1.04 ± 0.075
TAAAAAGGAC	0.9809 ± 0.008
TAAAAAGGAT	1.01 ± 0.02
TAAAAATACT	1.07 ± 0.11
TAAAAATTTG	1.07 ± 0.082
TAAAACAGGA	0.97 ± 0.017
TAAAACATTG	1.03 ± 0.015
TAAAACCAGT	1.04 ± 0.035
TAAAACCTAA	1.12 ± 0.25
TAAAACGGGG	1.02 ± 0.074
TAAAAGAGAT	1.04 ± 0.026
TAAAAGATGG	1.02 ± 0.019
TAAAAGGCGG	1.03 ± 0.029
TAAAAGGGCG	1.03 ± 0.012
TAAAAGGTAC	1.07 ± 0.07
TAAAAGGTGA	0.99 ± 0.029
TAAAAGTATG	0.969 ± 0.054
TAAAATGAGA	0.98 ± 0.031
TAAAATGCAT	0.979 ± 0.024

Sequence	switch fluorescence ratio
TAAAATGGAA	1.05 ± 0.1
TAAAATGGTG	1.01 ± 0.035
TAAAATTCGG	1.01 ± 0.018
TAAACAAACG	1.12 ± 0.028
TAAACACAGG	1.16 ± 0.044
TAAACACCTG	1.02 ± 0.095
TAAACCGAGC	1.73 ± 0.27
TAAACGAGGG	1.01 ± 0.014
TAAACGGGGT	1.03 ± 0.032
TAAACGGTGC	1.07 ± 0.023
TAAACTGCGA	1.07 ± 0.054
TAAAGAAAAA	1.02 ± 0.029
TAAAGAAAGC	0.9755 ± 0.0029
TAAAGAAGGG	0.988 ± 0.033
TAAAGAGGTG	1.11 ± 0.053
TAAAGCAGGC	1.11 ± 0.14
TAAAGCGAAC	1.29 ± 0.098
TAAAGCGTTG	0.9656 ± 0.0077
TAAAGGACTT	1.05 ± 0.087
TAAAGGAGAT	1.03 ± 0.032
TAAAGGAGTT	0.981 ± 0.032
TAAAGGCTAT	1 ± 0.026
TAAAGGGCGA	0.999 ± 0.027
TAAAGGGCGT	0.967 ± 0.021
TAAAGGGGAT	1.08 ± 0.16

Sequence	switch fluorescence ratio
TAAAGGGTG	1.08 ± 0.037
TAAAGGTAAT	1.01 ± 0.024
TAAAGGTTGT	0.994 ± 0.055
TAAAGTTATT	1.0106 ± 0.00041
TAAAGTTCTG	1.01 ± 0.023
TAAATAGGGT	1.05 ± 0.12
TAAATAGTAC	1.07 ± 0.032
TAAATCCGGA	0.995 ± 0.06
TAAATCTAGA	1.016 ± 0.01
TAAATGAGGA	1.03 ± 0.047
TAAATGGA	1.04 ± 0.039
TAAATGTTAA	0.9889 ± 0.0051
TAAATTACTA	1.05 ± 0.04
TAAATTAGTT	1.01 ± 0.017
TAAATTGCTT	0.991 ± 0.012
TAAATTTGTA	0.99 ± 0.028
TAAATTTTAA	0.9818 ± 0.0082
TAAATTTTTA	0.986 ± 0.052
TAAATTTTTG	1.07 ± 0.097
TAACAGAGGT	1.01 ± 0.033
TAACAGATGG	1.01 ± 0.029
TAACAGGTGG	1.02 ± 0.036
TAACAGTTAA	1.03 ± 0.027
TAACATAATT	1 ± 0.023
TAACCACCGG	1.03 ± 0.011

Sequence	switch fluorescence ratio
TAACCGATGT	1.01 ± 0.016
TAACGCTAGA	1.06 ± 0.03
TAACGCTTAA	1.09 ± 0.033
TAACGGCGTG	1.03 ± 0.021
TAACGGGTCG	0.937 ± 0.06
TAACGTAGGA	1.07 ± 0.031
TAACGTCCAG	0.978 ± 0.012
TAACTATATA	1.06 ± 0.014
TAACTGCATT	1.16 ± 0.14
TAACTGGTAC	1.13 ± 0.05
TAACTGTGAT	0.988 ± 0.025
TAACTTTCTT	0.987 ± 0.025
TAAGAAAAGT	0.9745 ± 0.0014
TAAGAAATGT	1.04 ± 0.04
TAAGAAGGTC	1.01 ± 0.054
TAAGAAGTAT	0.999 ± 0.034
TAAGAGAAGT	1.018 ± 0.0073
TAAGAGATAG	0.976 ± 0.012
TAAGAGCCAT	1.04 ± 0.013
TAAGAGGAGG	0.98337 ± 0.00017
TAAGAGGAGT	0.985 ± 0.013
TAAGAGGATC	1.0083 ± 6.4e-05
TAAGAGGTGT	1.04 ± 0.062
TAAGAGTAAT	0.985 ± 0.042
TAAGATATTA	0.998 ± 0.02

Sequence	switch fluorescence ratio
TAAGATGGAG	1 ± 0.021
TAAGATGGGG	0.9623 ± 0.0054
TAAGATGTTT	0.957 ± 0.034
TAAGCGCAGA	1.01 ± 0.03
TAAGCGCCAT	1.029 ± 0.0049
TAAGCGGCGA	0.973 ± 0.013
TAAGCTGGTA	0.995 ± 0.036
TAAGGAAAGG	0.982 ± 0.027
TAAGGAATCG	1 ± 0.043
TAAGGAATGT	1.04 ± 0.0038
TAAGGCATTG	0.996 ± 0.016
TAAGGCGCCG	0.962 ± 0.031
TAAGGCGGTA	0.963 ± 0.035
TAAGGCGGTC	0.991 ± 0.098
TAAGGCTGAA	1.02 ± 0.039
TAAGGCTTTG	0.9987 ± 0.0068
TAAGGGCCCG	0.991 ± 0.069
TAAGGGCGGT	0.957 ± 0.032
TAAGGGGAGC	1.01 ± 0.03
TAAGGGGAGG	1 ± 0.017
TAAGGGGGTA	0.992 ± 0.039
TAAGGGGTAG	0.994 ± 0.052
TAAGGGGTGT	1.03 ± 0.027
TAAGGGTCTT	0.996 ± 0.047
TAAGGGTGCC	1.01 ± 0.03
